Results: US9410182B2, “Phosphatase coupled glycosyltransferase assay” (Bio-Techne Corporation, priority 2010, dated 2016)

Substrate: N[C@H]1C(O)O[C@H](CO)[C@@H](O[C@@H]2O[C@H](CO)[C@H](O)[C@H](O)[C@H]2O)[C@@H]1O
Assay: Sialyltransferase activity of ST6Gal 1 assayed with CD73
Format: biochemical, human
Conditions: other: acceptor varied, CMP-NeuAc fixed at 0.2 mM; pH 7.5
Description: The GDP-Fucose, UDP-Glucose, CMP-NeuAc, CMP, UDP and GDP used in the following experiments were obtained from Sigma-Aldrich (St Louis, Mo.). The recombinant human Fut7, ST6Gal1, CD73, CD39L3, non-specific alkaline phosphatase TNAP, recombinant Clostridium Difficile toxin B (TcdB) containing the glycosyltransferase domain and Malachite Green Phosphate Detection Kit were obtained from R&D Systems (Minneapolis, Minn.). The 3′-Sialyl-N-acetyllactosamine was obtained from V-LABS, Inc (Convington, La.). Unless otherwise specified, each glycosyltransferase reaction was performed in 50 μL of a buffer of 25 mM Tris, 150 mM NaCl, 5 mM MgCl2 and 5 mM MnCl2, at pH 7.5 in a 96-well plate at room temperature for 20 minutes. […] The plate was then read at 620 nm with a multi-well plate reader.
Sialic acid is negatively charged under normal pH conditions, making sialyltransferases more difficult to assay than other glycosyltransferases. […] The results are shown in FIG. 7, and the specific activities against lactosamine and lactose were determined to be 458 and 41 pmol/min/μg respectively, confirming that the enzyme strongly favors lactosamine structure. The apparent Km and Vmax were determined for one substrate while fixing the other by fitting the data to KaleidaGraph 4 program.

B1: ST6Gal 1 (Homo sapiens) (protein)
chain: MIHTNLKKKFSCCVLVFLLFAVICVWKEKKKGSYYDSFKLQTKEFQVLKSLGKLAMGSDSQSVSSSSTQDPHRGRQTLGSLRGLAKAKPEASFQVWNKDSSSKNLIPRLQKIWKNYLSMNKYKVSYKGPGPGIKFSAEALRCHLRDHVNVSMVEVTDFPFNTSEWEGYLPKESIRTKAGPWGRCAVVSSAGSLKSSQLGREIDDHDAVLRFNGAPTANFQQDVGTKTTIRLMNSQLVTTEKRFLKDSLYNEGILIVWDPSVYHSDIPKWYQNPDYNFFNNYKTYRKLHPNQPFYILKPQMPWELWDILQEISPEEIQPNPPSSGMLGIIIMMTLCDQVDIYEFLPSKRKTDVCYYYQKFFDSACTMGAYHPLLYEKNLVKHLNQGTDEDIYLLGKATLPGFRTIHC
notes: purchased R&D Systems
- Km: 1800 ± 400 µM
- Vmax: 496 ± 38 pmol/min/µg
